Source: the RNAGym collection of RNA variant scans (doi:10.1093/nar/gkz1192)

B1: CPEB3 Ribozyme (parent)
chain: UAACAGGGGGCCACAGCAGAAGCGUUCACGUCGCAGCCCCUGUCAGAUUCUGGUGAAUCUGCGAAUUCUGCUGUAUAUCUC

Variants of: B1
Assay: self-cleavage, relative activity (ratio to wild type); higher = more cleavage; in vitro, sequencing
How it was run: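 Relative activity compares each variant's cleaved/total read fraction with that of the unmutated ribozyme. To get these fractions, barcoded CPEB3 ribozyme libraries from rounds of error-prone PCR were transcribed with T7 RNA polymerase for 5 hours at 37°C and then given 15 min of DNase I treatment before EDTA was added. The RNAs were reverse transcribed with template switching and sequenced on Illumina, and DNA sequencing linked barcodes to variants. A minimum of 5 reads applied, and three batches were averaged.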

Variant | self-cleavage
U1C C23G | 0.42
U1C C23U | 0.47
U1C C27U | 0.38
U1C C29A | 0.32
U1C C29U | 0.33
U1C C32A | 0.26
U1C C34A | 0.12
U1C C34U | 0.24
U1C C37A | 0.16
U1C C37U | 0.37
U1C C38A | 0.18
U1C C40A | 0.18
U1C C40U | 0.3
U1C C50A | 0.61
U1C C62U | 0.32
U1C C68A | 0.37
U1C C68G | 0.25
U1C C71U | 0.54
U1C C79A | 1.03
U1C C79U | 0.8
U1C C81G | 1.21
U1C G6A | 0.3
U1C G6C | 0.56
U1C G7A | 0.09

Variant | self-cleavage
U1C G7C | 0.44
U1C G8A | 0.34
U1C G8U | 0.39
U1C G9A | 0.43
U1C G9C | 0.39
U1C G10A | 0.23
U1C G10C | 0.17
U1C G16A | 0.08
U1C G19A | 0.32
U1C G19U | 0.4
U1C G24C | 0.31
U1C G30C | 0.14
U1C G33A | 0.32
U1C G36A | 0.21
U1C G36C | 0.2
U1C G42A | 0.45
U1C G52A | 1
U1C G53A | 0.98
U1C G53U | 0.72
U1C G63A | 0.84
U1C G70C | 0.35
U1C G70U | 0.32
U1C G73U | 1.08
U1C U25A | 0.37

Variant | self-cleavage
U1C U25C | 0.32
U1C U25G | 0.22
U1C U26A | 0.81
U1C U26C | 0.38
U1C U31A | 0.43
U1C U31C | 0.7
U1C U41A | 0.21
U1C U41C | 0.87
U1C U41G | 0.53
U1C U43A | 1.1
U1C U43C | 0.57
U1C U48A | 0.16
U1C U48C | 0.41
U1C U49A | 0.61
U1C U49C | 0.37
U1C U51A | 0.8
U1C U51C | 0.7
U1C U51G | 0.97
U1C U54A | 1.03
U1C U54C | 0.68
U1C U54G | 0.67
U1C U58A | 0.46
U1C U58C | 0.63
U1C U60A | 0.42

Variant | self-cleavage
U1C U60C | 0.39
U1C U66C | 0.39
U1C U67A | 0.4
U1C U67C | 0.26
U1C U67G | 0.22
U1C U69A | 0.44
U1C U69C | 0.46
U1C U72A | 0.66
U1C U72C | 0.82
U1C U72G | 1
U1C U74A | 1.21
U1C U74C | 1.21
U1C U74G | 1.19
U1C U76A | 0.78
U1C U76C | 0.8
U1C U78A | 1.11
U1C U78C | 0.8
U1C U78G | 0.94
U1C U80A | 0.82
U1C U80C | 1
U1G | 1.01
U1G A2G | 0.95
U1G A5U | 0.98
U1G A13G | 0.66

Variant | self-cleavage
U1G A15G | 0.84
U1G A18G | 0.61
U1G A20C | 0.55
U1G A28C | 0.6
U1G A28G | 0.55
U1G A35G | 1.25
U1G A47G | 1.16
U1G A56G | 0.92
U1G A57C | 0.37
U1G A64C | 0.26
U1G C23U | 0.49
U1G C27A | 0.43
U1G C38A | 0.48
U1G G8C | 0.59
U1G G53C | 0.89
U1G G63U | 0.81
U1G U25C | 0.13
U1G U26C | 0.4
U1G U41A | 0.3
U1G U41C | 1.01
U1G U48C | 0.79
U1G U69A | 0.65
U1G U72A | 0.71
U1G U72C | 1

Variant | self-cleavage
U1G U74C | 1.13
U1G U78C | 0.82
U1G U80A | 1.08
A2C | 0.91
A2C A5G | 0.86
A2C A13G | 0.49
A2C A15G | 0.69
A2C A15U | 0.5
A2C A28G | 0.51
A2C A35G | 1.24
A2C A64G | 0.74
A2C A64U | 0.21
A2C A65G | 0.46
A2C A77G | 1.01
A2C C23U | 0.25
A2C C39A | 0.49
A2C G8A | 0.1
A2C G9U | 0.21
A2C G36A | 0.22
A2C G52A | 1.02
A2C G61A | 0.48
A2C U25C | 0.49
A2C U26C | 0.55
A2C U31C | 0.63

Variant | self-cleavage
A2C U48C | 0.71
A2C U49C | 0.42
A2C U51A | 0.7
A2C U51G | 0.92
A2C U58A | 0.2
A2C U66C | 0.4
A2C U67C | 0.36
A2C U72A | 0.72
A2C U72C | 0.9
A2C U76C | 1.02
A2C U80A | 1.2
A2G | 0.7
A2G A3C | 0.89
A2G A3G | 1.01
A2G A5C | 0.94
A2G A5G | 0.73
A2G A5U | 0.8
A2G A13G | 0.59
A2G A13U | 0.91
A2G A15G | 0.53
A2G A15U | 0.41
A2G A18C | 0.43
A2G A18G | 0.48
